Positions count from the first letter of the chain named. Names and notes keep the numbering of the source.
B1: Q312L (protein)
chain: MQLRNPELHLGCALALRFLALVSWDIPGARALDNGLARTPTMGWLHWERFMCNLDCQEEPDSCISEKLFMEMAELMVSEGWKDAGYEYLCIDDCWMAPQRDSEGRLQADPQRFPHGIRQLANYVHSKGLKLGIYADVGNKTCAGFPGSFGYYDIDAQTFADWGVDLLKFDGCYCDSLENLADGYKHMSLALNRTGRSIVYSCEWPLYMWPFQKPNYTEIRQYCNHWRNFADIDDSWKSIKSILDWTSFNQERIVDVAGPGGWNDPDMLVIGNFGLSWNQQVTQMALWAIMAAPLFMSNDLRHISPQAKALLLDKDVIAINQDPLGKQGYQLRQGDNFEVWERPLSGLAWAVAMINRQEIGGPRSYTIAVASLGKGVACNPACFITQLLPVKRKLGFYEWTSRLRSHINPTGTVLLQLENTMQMSLKDLL
B2: D313E (protein)
chain: B1 chain with L312Q, D313E
B3: D313V (protein)
chain: B1 chain with L312Q, D313V
B4: K314E (protein)
chain: B1 chain with L312Q, K314E
B5: K314M (protein)
chain: B1 chain with L312Q, K314M
B6: K314N (protein)
chain: B1 chain with L312Q, K314N
B7: K314T (protein)
chain: B1 chain with L312Q, K314T
B8: D315A (protein)
chain: B1 chain with L312Q, D315A
B9: D315G (protein)
chain: B1 chain with L312Q, D315G
B10: D315H (protein)
chain: B1 chain with L312Q, D315H
B11: D315N (protein)
chain: B1 chain with L312Q, D315N
B12: D315V (protein)
chain: B1 chain with L312Q, D315V
B13: D315Y (protein)
chain: B1 chain with L312Q, D315Y
B14: V316A (protein)
chain: B1 chain with L312Q, V316A
B15: V316L (protein)
chain: B1 chain with L312Q, V316L
B16: I317L (protein)
chain: B1 chain with L312Q, I317L

Test system: mutant form of α-Gal A expressed in HEK-293 cells
Assay: HEK assay (GLP HEK / Migalastat Amenability Assay): α-Gal A activity in lysates of transiently transfected HEK-293 cells incubated with or without 10 μM migalastat
Assay type: cell-based, human
Settings: 10 μM migalastat versus baseline
Procedure, shortened: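 Activity reported as 4-MU released (nmol/mg/hr), mean±SEM, from lysates of transiently transfected HEK-293 cells expressing mutant α-Gal A, cultured with or without 10 μM migalastat.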

Molecule	Absolute increase (% WT)	Relative increase
B1	21.3 % WT	1.4
B2	13.2 % WT	1.3
B3	6.7 % WT	3.9
B4	11.0 % WT	1.3
B5	15.9 % WT	1.3
B6	10.8 % WT	1.2
B7	17.9 % WT	1.2
B8	25.1 % WT	1.3
B9	23.6 % WT	1.4
B10	17.4 % WT	1.4
B11	17.9 % WT	1.5
B12	24.8 % WT	1.8
B13	14.2 % WT	1.4
B14	22.7 % WT	1.4
B15	33.9 % WT	1.7
B16	16.5 % WT	1.3

Same assay, conditions: absence of migalastat; percentage of baseline wild-type α-Gal A activity; mean ± SEM

Molecule	Baseline α-Gal A activity (% WT)
B1	50.1 ± 4.1 % WT
B2	42.5 ± 2.3 % WT
B3	2.9 ± 0.2 % WT
B4	37.7 ± 2.5 % WT
B5	50.9 ± 3.8 % WT
B6	39.1 ± 3.4 % WT
B7	75.9 ± 4.4 % WT
B8	68.3 ± 4.8 % WT
B9	49.7 ± 3.7 % WT
B10	35.7 ± 2.8 % WT
B11	34.1 ± 1.7 % WT
B12	31.2 ± 3.6 % WT
B13	34.5 ± 3.5 % WT
B14	48.8 ± 4.1 % WT
B15	47.4 ± 3.9 % WT
B16	54.4 ± 4.9 % WT

Same assay, conditions: lysates of HEK-293 cells transiently transfected with the mutant form, incubated 5 days in absence of migalastat; mean ± SEM

Molecule	Baseline α-Gal A activity
B1	16986 ± 1428 nmol/mg/h
B2	14321 ± 1579 nmol/mg/h
B3	894 ± 33 nmol/mg/h
B4	13026 ± 1767 nmol/mg/h
B5	18231 ± 2878 nmol/mg/h
B6	14205 ± 2418 nmol/mg/h
B7	25162 ± 2701 nmol/mg/h
B8	18519 ± 1370 nmol/mg/h
B9	13326 ± 859 nmol/mg/h
B10	9791 ± 1077 nmol/mg/h
B11	8553 ± 425 nmol/mg/h
B12	8191 ± 717 nmol/mg/h
B13	9198 ± 1179 nmol/mg/h
B14	13166 ± 1029 nmol/mg/h
B15	12854 ± 958 nmol/mg/h
B16	14780 ± 1222 nmol/mg/h

Same assay, conditions: lysates of HEK-293 cells transiently transfected with the mutant form, incubated 5 days with 10 μM migalastat; mean ± SEM

Molecule	10 μM migalastat α-Gal A activity
B1	23967 ± 1400 nmol/mg/h
B2	18273 ± 1330 nmol/mg/h
B3	3480 ± 580 nmol/mg/h
B4	16765 ± 2098 nmol/mg/h
B5	23043 ± 2838 nmol/mg/h
B6	17364 ± 2225 nmol/mg/h
B7	30501 ± 2332 nmol/mg/h
B8	24758 ± 1512 nmol/mg/h
B9	19115 ± 1697 nmol/mg/h
B10	14136 ± 1573 nmol/mg/h
B11	13037 ± 869 nmol/mg/h
B12	14580 ± 1235 nmol/mg/h
B13	12674 ± 1008 nmol/mg/h
B14	18908 ± 1577 nmol/mg/h
B15	21812 ± 1450 nmol/mg/h
B16	18770 ± 1141 nmol/mg/h

Same assay, conditions: with 10 μM migalastat, 5 days; percentage of baseline wild-type α-Gal A activity; mean ± SEM

Molecule	10 μM migalastat α-Gal A activity (% WT)
B1	71.5 ± 4.6 % WT
B2	55.7 ± 1.9 % WT
B3	9.6 ± 0.9 % WT
B4	48.7 ± 2.8 % WT
B5	66.8 ± 3.8 % WT
B6	49.9 ± 2.6 % WT
B7	93.8 ± 4.5 % WT
B8	93.4 ± 7 % WT
B9	73.3 ± 8 % WT
B10	53.2 ± 5.5 % WT
B11	52.1 ± 3.7 % WT
B12	56 ± 6 % WT
B13	48.7 ± 2.4 % WT
B14	71.5 ± 7.1 % WT
B15	81.3 ± 6.3 % WT
B16	70.9 ± 5.6 % WT
